Target: Myc expressed from a co-transfected Myc expressing plasmid (pSpMyc)
Experiment: cell-based or functional assay

Myc-dependent transcriptional activity (pM4luc luciferase reporter, NIH-3T3 cells): 4 fold
Substance: cdr2 expressed from a co-transfected cdr2 expressing plasmid

Source: patent publication US20030004092A1
